# Assay results published in patent publication US20090208447A1 (MEDIGENE, published 2009).
# Where a chain is given by its changes, count along the chain named.
# B1: SEQ ID NO 6 (receptor)
# chain: MGHLPKPTLWAEPGSVITMGQPVTLRCQGGQETQEYRLYREKKTAPWITRIPQELVKKGQFPIPSITWEHAGRYRCYYGSDTAGRSESSDPLELVVTGAYIKPTLSAQPSPVVNSGGNVTLQCDSQVAFDGFILCKEGEDEHPQCLNSQPHARGSSRAIFSVGPVSPSRRWWYRCYAYDSNSPYEWSLPSDLLELLVL
# B2: SEQ ID NO 7 (receptor)
# chain: B1 chain with G20D, A99V, S168G
# B3: SEQ ID NO 8 (receptor)
# chain: B1 chain with M19L, G20M
# B4: SEQ ID NO 9 (receptor)
# chain: B1 chain with G20Q, Q21R, K42R, N147S
# B5: SEQ ID NO 21 (receptor)
# chain: B1 chain with M19L, G20F
# B6: SEQ ID NO 22 (receptor)
# chain: B1 chain with M19L, G20S, A99V
# B7: SEQ ID NO 23 (receptor)
# chain: B1 chain with W10Q, M19Q, Q21S, Y77V, Y78I, G79Q, S80R, D81G, A99V
# B8: SEQ ID NO 24 (receptor)
# chain: B1 chain with M19Q, Q21S, D81Q, T82G, A83G, G84L, A99V
# B9: SEQ ID NO 25 (receptor)
# chain: B1 chain with M19Q, Q21S, S80T, D81Q, A99V
# B10: SEQ ID NO 26 (receptor)
# chain: B1 chain with M19Q, Q21S, Y77M, Y78Q, G79Y, S80T, D81L, A99V
# B11: SEQ ID NO 27 (receptor)
# chain: B1 chain with M19Q, Q21S, A83S, G84Q, R85W, E87A, A99V
# B12: SEQ ID NO 28 (receptor)
# chain: B1 chain with M19Q, Q21S, D81Q, T82G, A83G, G84L
# B13: SEQ ID NO 29 (receptor)
# chain: B1 chain with M19Q, Q21S, S80T, D81Q
# B14: SEQ ID NO 30 (receptor)
# chain: B1 chain with M19Q, Q21S, Y77M, Y78Q, G79Y, S80T, D81L
# B15: SEQ ID NO 31 (receptor)
# chain: B1 chain with G20D, D81Q, T82G, A83G, G84L, A99V, S168G
# B16: SEQ ID NO 32 (receptor)
# chain: B1 chain with G20D, S80T, D81Q, A99V, S168G
# B17: SEQ ID NO 33 (receptor)
# chain: B1 chain with G20D, Y77V, Y78I, G79Q, S80R, D81G, A99V
# B18: SEQ ID NO 34 (receptor)
# chain: B1 chain with G20D, Y77M, Y78Q, G79Y, S80T, D81L, A99V
# B19: SEQ ID NO 35 (receptor)
# chain: B1 chain with M19Q, Q21S, A99I, I101R, K102Q
# B20: SEQ ID NO 36 (receptor)
# chain: B1 chain with M19Q, Q21S, A99I, I101L, K102A
# B21: SEQ ID NO 37 (receptor)
# chain: B1 chain with M19Q, Q21S, A99I, I101K, K102A
# B22: SEQ ID NO 38 (receptor)
# chain: B1 chain with M19Q, Q21S, A99I, I101Q, K102A
# B23: SEQ ID NO 39 (receptor)
# chain: B1 chain with M19Q, Q21A, A99V, S168G
# B24: SEQ ID NO 40 (receptor)
# chain: B1 chain with M19Q, Q21R, A99V
# B25: SEQ ID NO 41 (receptor)
# chain: B1 chain with M19V, A99V, S168G
# B26: SEQ ID NO 42 (receptor)
# chain: B1 chain with M19L, A99V, S168G
# B27: SEQ ID NO 43 (receptor)
# chain: B1 chain with M19Q, Q21S, A99V, S168G
# B28: SEQ ID NO 44 (receptor)
# chain: B1 chain with M19Q, Q21S, I66V, A99V
# B29: SEQ ID NO 45 (receptor)
# chain: B1 chain with M19Q, Q21S, Y77V, Y78G, G79W, S80A, D81V, A99V
# B30: SEQ ID NO 47 (receptor)
# chain: B1 chain with M19Q, Q21S, S80G, D81Q, T82E, A83G, G84A, A99V
# B31: SEQ ID NO 48 (receptor)
# chain: B1 chain with M19Q, Q21S, Y77Q, Y78G, G79V, D81Q, A99V
# B32: SEQ ID NO 49 (receptor)
# chain: B1 chain with M19Q, Q21S, W47Q, A99V, I101V, K102A, S168G
# B33: SEQ ID NO 50 (receptor)
# chain: B1 chain with M19Q, Q21S, A99I, I101K, K102A, S168G
# B34: SEQ ID NO 51 (receptor)
# chain: B1 chain with M19Q, Q21S, A99I, I101Q, K102R, S168G
# B35: SEQ ID NO 52 (receptor)
# chain: B1 chain with M19Q, Q21S, A99I, I101Q, K102A, S168G
# B36: SEQ ID NO 53 (receptor)
# chain: B1 chain with M19Q, Q21S, A99I, I101L, K102Q, S168G
# Target: HLA-A*0201 loaded with the Carcinoembryonic antigen (CEA)-derived … peptide (biotinylated on the C-terminal biotinylation tag)
# Experiment: SPR (Biacore), Example 4
Binder,Kd [nM],koff [s⁻¹]
B1,≤ 1000,≤ 2
B2,≤ 1000,≤ 2
B3,≤ 1000,≤ 2
B4,≤ 1000,≤ 2
B5,≤ 1000,≤ 2
B6,≤ 1000,≤ 2
B7,≤ 1000,≤ 2
B8,≤ 1000,≤ 2
B9,≤ 1000,≤ 2
B10,≤ 1000,≤ 2
B11,≤ 1000,≤ 2
B12,≤ 1000,≤ 2
B13,≤ 1000,≤ 2
B14,≤ 1000,≤ 2
B15,≤ 1000,≤ 2
B16,≤ 1000,≤ 2
B17,≤ 1000,≤ 2
B18,≤ 1000,≤ 2

Binder,Kd [nM],koff [s⁻¹]
B19,≤ 1000,≤ 2
B20,≤ 1000,≤ 2
B21,≤ 1000,≤ 2
B22,≤ 1000,≤ 2
B23,≤ 1000,≤ 2
B24,≤ 1000,≤ 2
B25,≤ 1000,≤ 2
B26,≤ 1000,≤ 2
B27,≤ 1000,≤ 2
B28,≤ 1000,≤ 2
B29,≤ 1000,≤ 2
B30,≤ 1000,≤ 2
B31,≤ 1000,≤ 2
B32,≤ 1000,≤ 2
B33,≤ 1000,≤ 2
B34,≤ 1000,≤ 2
B35,≤ 1000,≤ 2
B36,≤ 1000,≤ 2
